Laboratory results as given in patent US20020142009A1.

B1: recombinant wild-type SCPA49 (Asn32 through His1139) (protein)
chain: NTVTEDTPATEQAVETPQPTTVSEEVPSSKETKTPQTPDDAEETVADDANDLAPQAPAKTPDTSATSKATIRDLNDPSQVKTLQEKAGKGAGTVVAVIDAGFDKNHEAWRLTDKAKARYQSKEDLEKAKKEHGITYGEWVNDKVAYYHDYSKDGKTAVDQEHGTHVSGILSGNAPSETKEPYRLEGAMPEAQLLLMRVEIVNGLADYARNYAQAIRDAVNLGAKVINMSFGNAALAYANLPDETKKPFVYAKSKGVRIVTTAGNDSSFGGKTRLPLADHPDYGVVGTPAAADSTLTVASYSPDNQLTETAMVKTDDQQDKEMPVLSTNRFEPNKAYDYAYANRGMKEDDFKDVKGKIALIERSDIDFTDKIANAKKAGAVGVLIYDNQDKGFPIELPNVDQMPAAFISRKDGLLLKDNSQKTITFNATPKVLPTASGTKLSRFSSWGLTADGNIKPDIAAPGQDILSSAANNKYAKLSGTSMSAPLVAVIMGLLQKQYETQYPDMTQSERLDLAKKVLMSSATALYDEDEKAYFSPRQQGAGAVDAKKASEATMYVTDKDNTSSKVHLNNVSDKFEVTVTVHNKSDKPHELYYQATVQTDKVDGKHFALAPKALIETSWQKITIPANSSKQVTIPIDISQFSKDLLAQMKNGYFLEGFVRIKQDPTKEELMSIPYIGFRGDFGNLSALEKPLYDSKDGSSYYHEEISDAKDQLDGDGLQFYALKNDFTALTTESNPWTIINVVKEGVENIEDIESSEITETIFAGTFAKQDDDRHYYIHRHANGKPYAAISPNGDGNRDYVQFHGTFLRNAKNLVAEVLDKEGNVVWTSEVTEQVVKNYNNDLASTLGSTRFEISRWDGKDKDAKVVANGTYTYRVRYTPISSGAKEQHTDFDVIVDNTTPEVATSATFSTEDRRLTLASKPQTSQPVYRERIAYTYMDEDLPTTEYISPNEDGTFTLPEEAETMEGATVPLKMSDFTYVVEDMAGNITYTPVTKLLEGHSNKPEQDGSDQAPDKKPETKPEQDGSDQAPDKKPETKPGQDGSGQTPDKKPETKPEKDSSGQTPGKTPQKGQPSRTLEKRSSKRALATKASTRDQLPTTNDKDTNRLH
B2: SCPA49N295A (protein)
chain: NTVTEDTPATEQAVETPQPTTVSEEVPSSKETKTPQTPDDAEETVADDANDLAPQAPAKTPDTSATSKATIRDLNDPSQVKTLQEKAGKGAGTVVAVIDAGFDKNHEAWRLTDKAKARYQSKEDLEKAKKEHGITYGEWVNDKVAYYHDYSKDGKTAVDQEHGTHVSGILSGNAPSETKEPYRLEGAMPEAQLLLMRVEIVNGLADYARNYAQAIRDAVNLGAKVINMSFGNAALAYANLPDETKKPFVYAKSKGVRIVTTAGADSSFGGKTRLPLADHPDYGVVGTPAAADSTLTVASYSPDNQLTETAMVKTDDQQDKEMPVLSTNRFEPNKAYDYAYANRGMKEDDFKDVKGKIALIERSDIDFTDKIANAKKAGAVGVLIYDNQDKGFPIELPNVDQMPAAFISRKDGLLLKDNSQKTITFNATPKVLPTASGTKLSRFSSWGLTADGNIKPDIAAPGQDILSSAANNKYAKLSGTSMSAPLVAVIMGLLQKQYETQYPDMTQSERLDLAKKVLMSSATALYDEDEKAYFSPRQQGAGAVDAKKASEATMYVTDKDNTSSKVHLNNVSDKFEVTVTVHNKSDKPHELYYQATVQTDKVDGKHFALAPKALIETSWQKITIPANSSKQVTIPIDISQFSKDLLAQMKNGYFLEGFVRIKQDPTKEELMSIPYIGFRGDFGNLSALEKPLYDSKDGSSYYHEEISDAKDQLDGDGLQFYALKNDFTALTTESNPWTIINVVKEGVENIEDIESSEITETIFAGTFAKQDDDRHYYIHRHANGKPYAAISPNGDGNRDYVQFHGTFLRNAKNLVAEVLDKEGNVVWTSEVTEQVVKNYNNDLASTLGSTRFEISRWDGKDKDAKVVANGTYTYRVRYTPISSGAKEQHTDFDVIVDNTTPEVATSATFSTEDRRLTLASKPQTSQPVYRERIAYTYMDEDLPTTEYISPNEDGTFTLPEEAETMEGATVPLKMSDFTYVVEDMAGNITYTPVTKLLEGHSNKPEQDGSDQAPDKKPETKPEQDGSDQAPDKKPETKPGQDGSGQTPDKKPETKPEKDSSGQTPGKTPQKGQPSRTLEKRSSKRALATKASTRDQLPTTNDKDTNRLH
B3: SCPA49S512A (protein)
chain: NTVTEDTPATEQAVETPQPTTVSEEVPSSKETKTPQTPDDAEETVADDANDLAPQAPAKTPDTSATSKATIRDLNDPSQVKTLQEKAGKGAGTVVAVIDAGFDKNHEAWRLTDKAKARYQSKEDLEKAKKEHGITYGEWVNDKVAYYHDYSKDGKTAVDQEHGTHVSGILSGNAPSETKEPYRLEGAMPEAQLLLMRVEIVNGLADYARNYAQAIRDAVNLGAKVINMSFGNAALAYANLPDETKKPFVYAKSKGVRIVTTAGNDSSFGGKTRLPLADHPDYGVVGTPAAADSTLTVASYSPDNQLTETAMVKTDDQQDKEMPVLSTNRFEPNKAYDYAYANRGMKEDDFKDVKGKIALIERSDIDFTDKIANAKKAGAVGVLIYDNQDKGFPIELPNVDQMPAAFISRKDGLLLKDNSQKTITFNATPKVLPTASGTKLSRFSSWGLTADGNIKPDIAAPGQDILSSAANNKYAKLSGTAMSAPLVAVIMGLLQKQYETQYPDMTQSERLDLAKKVLMSSATALYDEDEKAYFSPRQQGAGAVDAKKASEATMYVTDKDNTSSKVHLNNVSDKFEVTVTVHNKSDKPHELYYQATVQTDKVDGKHFALAPKALIETSWQKITIPANSSKQVTIPIDISQFSKDLLAQMKNGYFLEGFVRIKQDPTKEELMSIPYIGFRGDFGNLSALEKPLYDSKDGSSYYHEEISDAKDQLDGDGLQFYALKNDFTALTTESNPWTIINVVKEGVENIEDIESSEITETIFAGTFAKQDDDRHYYIHRHANGKPYAAISPNGDGNRDYVQFHGTFLRNAKNLVAEVLDKEGNVVWTSEVTEQVVKNYNNDLASTLGSTRFEISRWDGKDKDAKVVANGTYTYRVRYTPISSGAKEQHTDFDVIVDNTTPEVATSATFSTEDRRLTLASKPQTSQPVYRERIAYTYMDEDLPTTEYISPNEDGTFTLPEEAETMEGATVPLKMSDFTYVVEDMAGNITYTPVTKLLEGHSNKPEQDGSDQAPDKKPETKPEQDGSDQAPDKKPETKPGQDGSGQTPDKKPETKPEKDSSGQTPGKTPQKGQPSRTLEKRSSKRALATKASTRDQLPTTNDKDTNRLH
B4: SCPA49D130A (protein)
chain: NTVTEDTPATEQAVETPQPTTVSEEVPSSKETKTPQTPDDAEETVADDANDLAPQAPAKTPDTSATSKATIRDLNDPSQVKTLQEKAGKGAGTVVAVIAAGFDKNHEAWRLTDKAKARYQSKEDLEKAKKEHGITYGEWVNDKVAYYHDYSKDGKTAVDQEHGTHVSGILSGNAPSETKEPYRLEGAMPEAQLLLMRVEIVNGLADYARNYAQAIRDAVNLGAKVINMSFGNAALAYANLPDETKKPFVYAKSKGVRIVTTAGNDSSFGGKTRLPLADHPDYGVVGTPAAADSTLTVASYSPDNQLTETAMVKTDDQQDKEMPVLSTNRFEPNKAYDYAYANRGMKEDDFKDVKGKIALIERSDIDFTDKIANAKKAGAVGVLIYDNQDKGFPIELPNVDQMPAAFISRKDGLLLKDNSQKTITFNATPKVLPTASGTKLSRFSSWGLTADGNIKPDIAAPGQDILSSAANNKYAKLSGTSMSAPLVAVIMGLLQKQYETQYPDMTQSERLDLAKKVLMSSATALYDEDEKAYFSPRQQGAGAVDAKKASEATMYVTDKDNTSSKVHLNNVSDKFEVTVTVHNKSDKPHELYYQATVQTDKVDGKHFALAPKALIETSWQKITIPANSSKQVTIPIDISQFSKDLLAQMKNGYFLEGFVRIKQDPTKEELMSIPYIGFRGDFGNLSALEKPLYDSKDGSSYYHEEISDAKDQLDGDGLQFYALKNDFTALTTESNPWTIINVVKEGVENIEDIESSEITETIFAGTFAKQDDDRHYYIHRHANGKPYAAISPNGDGNRDYVQFHGTFLRNAKNLVAEVLDKEGNVVWTSEVTEQVVKNYNNDLASTLGSTRFEISRWDGKDKDAKVVANGTYTYRVRYTPISSGAKEQHTDFDVIVDNTTPEVATSATFSTEDRRLTLASKPQTSQPVYRERIAYTYMDEDLPTTEYISPNEDGTFTLPEEAETMEGATVPLKMSDFTYVVEDMAGNITYTPVTKLLEGHSNKPEQDGSDQAPDKKPETKPEQDGSDQAPDKKPETKPGQDGSGQTPDKKPETKPEKDSSGQTPGKTPQKGQPSRTLEKRSSKRALATKASTRDQLPTTNDKDTNRLH
B5: ΔSCPA49 (truncated recombinant SCPA49, Thr63 through His1031) (protein)
chain: TKTPQTPDDAEETVADDANDLAPQAPAKTPDTSATSKATIRDLNDPSQVKTLQEKAGKGAGTVVAVIDAGFDKNHEAWRLTDKAKARYQSKEDLEKAKKEHGITYGEWVNDKVAYYHDYSKDGKTAVDQEHGTHVSGILSGNAPSETKEPYRLEGAMPEAQLLLMRVEIVNGLADYARNYAQAIRDAVNLGAKVINMSFGNAALAYANLPDETKKPFVYAKSKGVRIVTTAGNDSSFGGKTRLPLADHPDYGVVGTPAAADSTLTVASYSPDNQLTETAMVKTDDQQDKEMPVLSTNRFEPNKAYDYAYANRGMKEDDFKDVKGKIALIERSDIDFTDKIANAKKAGAVGVLIYDNQDKGFPIELPNVDQMPAAFISRKDGLLLKDNSQKTITFNATPKVLPTASGTKLSRFSSWGLTADGNIKPDIAAPGQDILSSAANNKYAKLSGTSMSAPLVAVIMGLLQKQYETQYPDMTQSERLDLAKKVLMSSATALYDEDEKAYFSPRQQGAGAVDAKKASEATMYVTDKDNTSSKVHLNNVSDKFEVTVTVHNKSDKPHELYYQATVQTDKVDGKHFALAPKALIETSWQKITIPANSSKQVTIPIDISQFSKDLLAQMKNGYFLEGFVRIKQDPTKEELMSIPYIGFRGDFGNLSALEKPLYDSKDGSSYYHEEISDAKDQLDGDGLQFYALKNDFTALTTESNPWTIINVVKEGVENIEDIESSEITETIFAGTFAKQDDDRHYYIHRHANGKPYAAISPNGDGNRDYVQFHGTFLRNAKNLVAEVLDKEGNVVWTSEVTEQVVKNYNNDLASTLGSTRFEISRWDGKDKDAKVVANGTYTYRVRYTPISSGAKEQHTDFDVIVDNTTPEVATSATFSTEDRRLTLASKPQTSQPVYRERIAYTYMDEDLPTTEYISPNEDGTFTLPEEAETMEGATVPLKMSDFTYVVEDMAGNITYTPVTKLLEGH

What was measured:
[1] = molecular target: rhC5a (human (printed as rhC5a)) (UniProt P01031); experiment: cell-based or functional assay
rhC5a, P01031 = molecular target: T1, rhC5a, P01031
T1 chain: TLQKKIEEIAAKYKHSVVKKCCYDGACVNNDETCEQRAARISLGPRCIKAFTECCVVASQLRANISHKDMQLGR

Row | Molecule | Activity (U/mg*10^-3), PMN adherence assay (rhC5a, P01031) [U/mg·10^-3] | further results
1 | SCPA6, streptococcal C5a peptidase of group A Streptococcus serotype M6 strain UAB200, as made by the bacteria (enzyme) | – | Percent inhibition of C5a induced PMN adherence [1]: 58.8%
2 | SCPA49, streptococcal C5a peptidase of group A Streptococcus serotype M49 strain CS101, as made by the bacteria (from UniProt P58099 2-1181) (enzyme) | – | Percent inhibition of C5a induced PMN adherence [1]: 54.5%
3 | B1 | 170 | –
4 | B2 | < 20 | –
5 | B3 | < 20 | –
6 | B4 | < 20 | –
7 | B5 | – | peptidase activity, PMN adherence assay (rhC5a, P01031): lacked peptidase activity
